The values that follow come from US20190064177A1, “INCORPORATING COMPETITIVE BINDING INFORMATION INTO MOLECULAR ARRAY ANALYSIS TO GENERATE FUNCTION NETWORKS OF INTERACTIONS” (ARIZONA BOARD OF REGENTS ON BEHALF OF ARIZONA STATE …, priority 2017, published 2019).

Test [1] concerns the target Diaphorase. As to the kind of experiment: peptide array, 10 uM labeled diaphorase, no FAD; detector saturation.
Test [2] deals with Diaphorase. As to the kind of experiment: peptide array, 10 uM diaphorase, binding without FAD / with FAD.
Test [3] addresses Diaphorase. Briefly: peptide array, 1 uM diaphorase, binding without FAD / with FAD.
Test [4] concerns the target Diaphorase. As to the kind of experiment: peptide array, 10 uM labeled diaphorase, with FAD.
In test [5] the target is Diaphorase. Briefly: peptide array, 1 uM labeled diaphorase, no FAD.
Test [6] has as its target Diaphorase. Briefly: peptide array, 1 uM labeled diaphorase, with FAD.
For test [7], the target named is Diaphorase. Briefly: peptide array, 10 uM labeled diaphorase, no FAD.
In test [8] the target is Diaphorase. Briefly: peptide array, 10 uM labeled diaphorase, with FAD; detector saturation.

B1: … (peptide)
peptide: PRYQNFGGGSG
As to B1, the fluorescence was over 65500 with Diaphorase [1], 36700 with Diaphorase [4], 6910 with Diaphorase [5] and 2460 in the test with Diaphorase [6]. Also, the figures for the noFAD/FAD with Diaphorase [2] and with Diaphorase [3] were 1.79 and 2.81, respectively.

B2: … (peptide)
peptide: YRNAAWFSGGSG
With B2, the fluorescence was over 65500 in the test with Diaphorase [1], 43300 with Diaphorase [4], 8370 with Diaphorase [5] and 2930 with Diaphorase [6]. The noFAD/FAD with Diaphorase [2] worked out at 1.51; with Diaphorase [3], 2.86.

B3: … (peptide)
peptide: YRFPNAQSPGGSG
Take B3: the fluorescence with Diaphorase [1] is over 65500; with Diaphorase [4], 37700; in the test with Diaphorase [5] it was 6240; with Diaphorase [6], 2370. In addition, the noFAD/FAD with Diaphorase [2] came out at 1.74; with Diaphorase [3], 2.63.

B4: … (peptide)
peptide: DLFQLVFSGSG
B4: the noFAD/FAD was found to be 0.499 with Diaphorase [2] and 0.641 with Diaphorase [3]. For the same molecule, the fluorescence in the test with Diaphorase [7] was 32700; with Diaphorase [5], 5780; with Diaphorase [6], 9010; in the test with Diaphorase [8] it was over 65500.

B5: … (peptide)
peptide: PRYSGQYGGSG
With B5, the fluorescence with Diaphorase [1] was over 65500; in the test with Diaphorase [4], 45200; with Diaphorase [5], 8430; with Diaphorase [6] it was 3230. For the same molecule, the noFAD/FAD is 1.45 with Diaphorase [2] and 2.61 with Diaphorase [3].

B6: … (peptide)
peptide: YRPYGPVYNGGSG
Turning to B6, the fluorescence with Diaphorase [1] was over 65500; with Diaphorase [5], 18700; in the test with Diaphorase [6] it was 6760; in the test with Diaphorase [8] it was over 65500. Also, the noFAD/FAD was determined as 1 with Diaphorase [2] and 2.77 in the test with Diaphorase [3].

B7: … (peptide)
peptide: RYYPAFSGGSG
In the case of B7, the fluorescence in the test with Diaphorase [1] is over 65500; with Diaphorase [5], 21900; with Diaphorase [6] it was 7540; with Diaphorase [8], over 65500. For the same molecule, the noFAD/FAD was 1 with Diaphorase [2] and 2.91 in the test with Diaphorase [3].

B8: RNWYGGSG (peptide)
peptide: RNWYGGS
In the case of B8, the fluorescence with Diaphorase [1] was over 65500; in the test with Diaphorase [4], 48600; with Diaphorase [5], 7830; in the test with Diaphorase [6], 2940. Also, the noFAD/FAD with Diaphorase [2] was 1.35; with Diaphorase [3], 2.66.

B9: … (peptide)
peptide: YRLNLKHPVGGSG
In the case of B9, the fluorescence is over 65500 with Diaphorase [1], 56700 in the test with Diaphorase [4], 12700 with Diaphorase [5] and 4150 with Diaphorase [6]. For the same molecule, the figures for the noFAD/FAD with Diaphorase [2] and in the test with Diaphorase [3] were 1.16 and 3.05, respectively.

B10: … (peptide)
peptide: RWRYYWKSEGSG
Take B10: the fluorescence was over 65500 with Diaphorase [1], 51400 with Diaphorase [4], 11000 in the test with Diaphorase [5] and 4090 in the test with Diaphorase [6]. In addition, the noFAD/FAD came out at 1.27 in the test with Diaphorase [2] and 2.7 with Diaphorase [3].

B11: … (peptide)
peptide: RWSFPAKGGSG
As to B11, the fluorescence was over 65500 in the test with Diaphorase [1], 51200 with Diaphorase [4], 10000 in the test with Diaphorase [5] and 3610 in the test with Diaphorase [6]. For the same molecule, the noFAD/FAD with Diaphorase [2] amounted to 1.28; with Diaphorase [3], 2.77.

B12: … (peptide)
peptide: RYPWNKLYKFDGSG
As to B12, the fluorescence in the test with Diaphorase [1] is over 65500; in the test with Diaphorase [4], 53000; with Diaphorase [5] it was 9740; with Diaphorase [6], 3480. For the same molecule, the values for the noFAD/FAD in the test with Diaphorase [2] and with Diaphorase [3] were 1.24 and 2.8, respectively.

B13: … (peptide)
peptide: RWQYYNQKFGSG
Take B13: the fluorescence in the test with Diaphorase [1] was over 65500; with Diaphorase [5] it was 15700; with Diaphorase [6] it was 5460; in the test with Diaphorase [8] it was over 65500. Moreover, the noFAD/FAD worked out at 1 with Diaphorase [2] and 2.88 in the test with Diaphorase [3].

B14: … (peptide)
peptide: RLYPQGYGGSG
B14: the fluorescence in the test with Diaphorase [1] is over 65500; in the test with Diaphorase [4] it was 61700; in the test with Diaphorase [5] it was 11900; in the test with Diaphorase [6] it was 4540. Further, the results for the noFAD/FAD in the test with Diaphorase [2] and with Diaphorase [3] were 1.06 and 2.62, respectively.

B15: … (peptide)
peptide: PRSFGYNNVGGSG
Take B15: the fluorescence was over 65500 with Diaphorase [1], 40500 with Diaphorase [4], 6840 with Diaphorase [5] and 2530 in the test with Diaphorase [6]. The noFAD/FAD with Diaphorase [2] was determined as 1.62; with Diaphorase [3] it was 2.71.
